Experimental data published in paper PMC6815410, “Characterization of Xi-class mycothiol S-transferase from Corynebacterium glutamicum and its protective effects in oxidative stress” (Microbial Cell Factories, 2019).

Columns and labels:
MstX (NCgl1216) [1] = target: T1, MstX (NCgl1216) (Corynebacterium glutamicum, UniProt Q8NR03); assay: Mtr-coupled NADPH oxidation at […] nm (thiol transferase assay); format: biochemical; details: 100 mM MSH, 300 μM NADPH, 5 μM Mtr, 50 mM potassium phosphate pH 7.6, 25 °C
T1 construct: gene Cgl1264; full length, 359 residues, 40,619 Da; pET28a His6 fusion from E. coli BL21(DE3), tag cleaved; monomer

MstX (NCgl1216) [2] = target: T2, MstX (NCgl1216) (Corynebacterium glutamicum, UniProt Q8NR03, C262S); assay: MALDI-TOF MS of S-mycothiolated protein; format: binding; details: covalent; mixed disulfide at Cys67; formed with H2O2
T2 construct: gene Cgl1264

CC(C)(C)OO = assay: purified protein; details: 500 μM MSH, 4 μM Mtr, 250 μM NADPH, 1 mM EDTA, 50 mM Tris-HCl pH 7.5
purified protein = substrate: O=C1O[C@H]([C@@H](O)CO)C(=O)C1=O; assay: purified protein; format: biochemical, Corynebacterium glutamicum; details: 100 mM MSH, 300 μM NADPH, 5 μM Mtr, 50 mM potassium phosphate pH 7.6, 25 °C
CC(C)(OO)c1ccccc1 = assay: purified protein; details: 500 μM MSH, 4 μM Mtr, 250 μM NADPH, 1 mM EDTA, 50 mM Tris-HCl pH 7.5

Question: For OCCSSCCO [HED], which Km (MstX (NCgl1216) [1]) is on record?
Answer: Its Km is 192 ± 30 µM.

Question: For CC(=O)N[C@@H](CS)C(=O)NC1[C@@H](O[C@@H]2[C@H](O)[C@H](O)[C@@H](O)[C@H](O)[C@H]2O)O[C@H](CO)[C@@H](O)[C@@H]1O (stereo partly drawn) [MSH], which “MALDI-TOF MS of S-mycothiolated protein” value (MstX (NCgl1216) [2]) is on record?
Answer: The value was “Pure S-mycothiolated MstX:C262S were confirmed by Matrix-Assisted Laser Desorption/Ionization Time of Flight Mass Spectrometry”.

Question: Which results are given for “MstX (NCgl1216) (Corynebacterium glutamicum ATCC 13032)”?
Answer: Km (CC(C)(C)OO): 301.3 ± 46.62 µM; kcat (CC(C)(C)OO): 0.135 ± 0.006 s⁻¹

B1: MstX (NCgl1216) (Corynebacterium glutamicum ATCC 13032) (protein)
chain: MANTSSDWAGAPQNASADGEFVRDTNYIDDRIVADVPAGSEPIAQEDGTFHWPVEAGRYRLVAARACPWAHRTVITRRLLGLENVISLGLTGPTHDVRSWTFDLDPNHLDPVLQIPRLQDAYFNRFPDYPRGITVPALVEESSKKVVTNDYPSITIDFNLEWKQFHREGAPNLYPAELREEMAPVMKRIFTEVNNGVYRTGFAGSQEAHNEAYKRLWVALDWLEDRLSTRRYLMGDHITEADIRLYPTLVRFDAVYHGHFKCGRNKITEMPNLWGYLRDLFQTPGFGDTTDFTEIKQHYYITHAEINPTRIVPVGPDLSGFATPHGREKLGGSPFAEGVTLPGPIPAGEEVKNPEPFQK
notes: full length, 359 residues, 40,619 Da; pET28a His6 fusion from E. coli BL21(DE3), tag cleaved; monomer
Question: With B1 as the molecule, how does the Km (purified protein) read?
Answer: Its Km is 1115 ± 252 µM.

Question: What about the kcat (purified protein) of the same molecule?
Answer: The kcat was 573 ± 44.3 s⁻¹.

Question: And the kcat/Km (purified protein)?
Answer: Its kcat/Km is 571000 ± 410000 M⁻¹ s⁻¹.

Question: What about the Km (CC(C)(OO)c1ccccc1) of the same molecule?
Answer: Its Km is 328.1 ± 33.27 µM.

Question: What about the kcat (CC(C)(OO)c1ccccc1) of the same molecule?
Answer: The kcat was 0.153 ± 0.005 s⁻¹.
